The values that follow come from patent publication US20030003563, “Method of using a crystal of the N-terminal domain of a signal transducer and activator of transcription” (published 2003).

Data set [1] deals with STAT-1alpha W37A (Tyr-phosphorylated) (Homo sapiens, UniProt P42224 P42224:2-750, W37A). Description: EMSA; used to titrate active protein. The note with it: tags: C-terminal 6xHis; baculovirus insect cells; chain copies: 2 (dimer; stated). From the text: (§1) Gel shift experiments and determination of tetramer stability were done as described [Vinkemeier et al., EMBO J. 15:5616 (1996)] with an oligonucleotide containing two copies of the STAT recognition element from the c-fos gene [Wagner et al., EMBO J. 9:4477 (1990)] spaced by 10 base pairs (5′-[…]-3′). Both protein preparations (Tyr-phosphorylated wild type STAT-1α and W37A mutant) were titrated in gel shift experiments with an oligonucleotide containing a single M67 site (5′-[…]-3′) [Wagner et al., EMBO J. 9:4477 (1990)] to assure similar loading of active protein. […] The time necessary to reach equilibrium was assessed by EMSA [(Stone et al., in Jost, J. P. & Saluz, H. P. (eds.) A Laboratory Guide to In Vitro Studies of Protein-DNA Interactions BioMethods, vol.5:163-195 (1991)]. For all DNA fragments tested, equilibrium turned out to be fully established at the earliest timepoint that can be determined by this technique (30 sec). Therefore incubation periods of 5-15 minutes were chosen. Reaction products were loaded onto a 4% polyacrylamide gel (1.5 mm thick) containing 0.25× Tris-borate-EDTA which had been pre-run at 20V/cm for 2 hours at 4° C. Electrophoresis was continued for 60 minutes at 4° C. Gels were dried and exposed to X-ray film and quantitated by a Molecular Dynamics Phospholmager.

The target of data set [2] is STAT-1alpha (Tyr-phosphorylated, wild type) (Homo sapiens, UniProt P42224 P42224:2-750). Kind of data set: EMSA; used to titrate active protein. The note with it: tags: in vitro Tyr-phosphorylated with EGF-receptor kinase; chain copies: 4 (two dimers on tandem site; stated).
From the text: as §1

The target in data set [3] is STAT-1alpha wild type (transfected, U3A cells) (Homo sapiens, UniProt P42224 P42224:2-750). Kind of data set: cell_activity; IFN-gamma 5 ng/ml, 10 h, luciferase in U3A cells. Particulars: tags: pcDNA3 expression. The method, then:
FIG. 4B show the effect of STAT-1 W37A mutation on interferon-γ (IFN-γ) stimulated gene activation in vivo. U3A cells that are lacking STAT-1 [Miller et al., EMBO J. 12:4221 (1993)] were transfected with expression clones containing either wild type or mutant STAT-1 (see Methods of the EXAMPLE, below) along with a luciferase reporter containing a tandem STAT binding site as an enhancer. After stimulation with IFN-γ for 10 hours, luciferase expression was determined spectroscopically (represented as bars). Cells transfected with the wild type protein show an about 2-fold increase in luciferase expression. […] Each bar represents ten individual parallel experiments. Error bars denote standard deviation from the mean.
Transient transfections were performed on six well plates with 50% confluent U3A cells using the calcium phosphate method as instructed by the manufacturer (Stratagene) with the following modifications. Transfection reactions contained per well 4.5 μg of either wild type STAT-1α or the W37A mutant in plasmid pcDNA3 (Invitrogen), 4 μg luciferase reporter plasmid pLuc, and 0.4 μg β-galactosidase reporter plasmid (Stratagene).
The luciferase reporter contained in its BamH1 site as an enhancer element two tandemly arranged “weak” STAT-1 binding sites (5′-[…]-3′, binding sites underlined) from the human c-fos promoter. […]

Chain of STAT-1alpha wild type (transfected, U3A cells) (P42224 2-750, one chain of several): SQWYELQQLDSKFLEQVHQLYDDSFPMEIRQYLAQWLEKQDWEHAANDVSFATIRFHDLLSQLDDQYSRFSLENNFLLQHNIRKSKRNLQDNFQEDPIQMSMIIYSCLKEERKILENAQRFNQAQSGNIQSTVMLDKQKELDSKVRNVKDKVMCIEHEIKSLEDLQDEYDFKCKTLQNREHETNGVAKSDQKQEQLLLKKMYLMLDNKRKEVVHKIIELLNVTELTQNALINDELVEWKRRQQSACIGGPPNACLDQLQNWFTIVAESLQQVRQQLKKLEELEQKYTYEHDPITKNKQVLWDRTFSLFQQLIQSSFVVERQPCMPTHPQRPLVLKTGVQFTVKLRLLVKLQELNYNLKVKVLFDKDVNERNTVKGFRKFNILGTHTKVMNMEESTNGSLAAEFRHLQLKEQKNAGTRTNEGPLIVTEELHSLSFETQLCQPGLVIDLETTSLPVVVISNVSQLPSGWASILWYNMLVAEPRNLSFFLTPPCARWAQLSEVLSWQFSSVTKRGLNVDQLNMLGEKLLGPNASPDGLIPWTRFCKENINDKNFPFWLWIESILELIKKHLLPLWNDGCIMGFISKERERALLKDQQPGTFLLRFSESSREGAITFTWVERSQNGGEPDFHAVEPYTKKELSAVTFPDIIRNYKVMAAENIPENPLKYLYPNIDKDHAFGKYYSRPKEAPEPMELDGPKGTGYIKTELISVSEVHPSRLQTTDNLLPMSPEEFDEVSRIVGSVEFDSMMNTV
Chain of STAT-1alpha (Tyr-phosphorylated, wild type) (P42224 2-750, one chain of several): as above
Chain of STAT-1alpha W37A (Tyr-phosphorylated) (P42224 2-750 W37A, one chain of several): as the sequence (P42224 2-750, one chain of several) above, with W36A counted along it

B1: single M67 site (dsDNA)
DNA 1: GCCGATTTCCCGTAAATCAT
DNA 2: ATGATTTACGGGAAATCGGC
Turning to B1, the binding result in data set [1] and in data set [2] was “binds” in each case.

B2: luciferase reporter enhancer with two weak STAT-1 sites (dsDNA)
DNA 1: GATCAGTTCCCGTCAATCATGATCCAGTTCCCGTCAATGATCCCCGGGATC
DNA 2: GATCCCGGGGATCATTGACGGGAACTGGATCATGATTGACGGGAACTGATC
For the molecule B2, the activity in data set [3] is ~2 fold induction.
